Measured values: article PMC6149694, “Engineering the L-Arabinose Isomerase from Enterococcus Faecium for D-Tagatose Synthesis” (Molecules : A Journal of Synthetic Chemistry and Natural …, 2017)
Values joined by “and” are separate entries in the source; they are usually repeats but may differ in a detail not shown here. Identical values can stand only once.

Molecular target: the molecule itself
Test: AUC; sedimentation velocity, 20 °C, 50 mM sodium phosphate buffer pH 7.0, absorbance at 285 nm, c(s) by SEDFIT; distributions shown for 0.43 g L^-1 N-His-L-AI and 0.3 g L^-1 C-His-L-AI; self-association, monomer to oligomers

B1: N-terminal His-tagged L-arabinose isomerase (L-AI) from Enterococcus faecium DBFIQ E36 (enzyme, UniProt Q3Y1E5 1-474, looked up)
chain: MLNIGEKEFWFVVGSQHLYGEEALREVKKHAQEMVDELNENGQLPYPIRLQELAVTADTITKIMKEVNYREEVAGVITWMHTFSPAKMWIRGTKLLQKPLLHLATQYNESIPWKTIDMDFMNLNQSAHGDREYGFINARLNKQNKIVVGYWKRPEIQKEIADWMDVAVAYNESFGIKVARFGDNMRNVGVTEGDKVEAQIQFGWTVDYFGIGDLVQVIDRVSDEEVDQLFEEYKELYTFDYGDYEEKTWEEHVKVQAQQEIGIRRFLEEGGYNAFTTNFEDLYGMKQLPGLAVQRLMAEGYGFAGEGDWKTAAIDRLLKIMARGKDTGFMEDYTYELASGQEAILESHMMEVDPTLAATKPRIVVSPLSMGDREDPARLVFDGKAGEGVVVSMADFGTHYKLLINEVEAFEPTTEAPNLPVARVLWKTKPNFHEGVHSWIQAGGGHHTVVSLNLTTDQIETWAKLVELETVVIR
notes: codon-optimised synthetic gene; the construct has 481 aa including the initial methionine (MW 55,036); also called N-His-L-AI; recombinant L-AI; not shown: His6, N-terminal, kept
stoichiometry N: 4 and 6

B2: C-terminal His-tagged L-arabinose isomerase (L-AI) from Enterococcus faecium DBFIQ E36 (enzyme, UniProt Q3Y1E5 1-474, looked up)
chain: MLNIGEKEFWFVVGSQHLYGEEALREVKKHAQEMVDELNENGQLPYPIRLQELAVTADTITKIMKEVNYREEVAGVITWMHTFSPAKMWIRGTKLLQKPLLHLATQYNESIPWKTIDMDFMNLNQSAHGDREYGFINARLNKQNKIVVGYWKRPEIQKEIADWMDVAVAYNESFGIKVARFGDNMRNVGVTEGDKVEAQIQFGWTVDYFGIGDLVQVIDRVSDEEVDQLFEEYKELYTFDYGDYEEKTWEEHVKVQAQQEIGIRRFLEEGGYNAFTTNFEDLYGMKQLPGLAVQRLMAEGYGFAGEGDWKTAAIDRLLKIMARGKDTGFMEDYTYELASGQEAILESHMMEVDPTLAATKPRIVVSPLSMGDREDPARLVFDGKAGEGVVVSMADFGTHYKLLINEVEAFEPTTEAPNLPVARVLWKTKPNFHEGVHSWIQAGGGHHTVVSLNLTTDQIETWAKLVELETVVIR
notes: codon-optimised synthetic gene; the construct has 482 aa including the initial methionine (MW 55,221); also called C-His-L-AI; recombinant L-AI; not shown: His6, C-terminal, kept
stoichiometry N: 3 and 6
